Target: the molecule itself
Test: cryo-EM structure

B1: untagged G3BP2 NTF2L domain (amino acids 1-139) (domain or fragment)
chain: MVMEKPSPLLVGREFVRQYYTLLNKAPEYLHRFYGRNSSYVHGGVDASGKPQEAVYGQNDIHHKVLSLNFSECHTKIRHVDAHATLSDGVVVQVMGLLSNSGQPERKFMQTFVLAPEGSVPNKFYVHNDMFRYEDEVFG
stoichiometry N: 2

— publication doi:10.1101/2025.04.30.651496 (bioRxiv, 2025)
